From paper PMC11577753, “Identification and characterization of a novel formaldehyde dehydrogenase in Bacillus subtilis” (Applied and Environmental Microbiology, 2024)

Substrate: C=O
Assay: purified protein
Assay type: biochemical, Bacillus subtilis
Details: 10 mM NAD+, 50 mM BISTRIS propane pH 9.0, 25 mM NaCl, 37 °C (Fig 6 legend; methods say 40 °C)

B1: YycR (Bacillus subtilis subsp. subtilis str. 168) (protein)
chain: MGGMALTGNKAVVYKGKGTVAVEDIGYPELILRDGPGVPKANVNRKCEHGVILKVITTNICGSDQHMVRGRTTAPEGLVLGHEITGEVIETGRDVEFIKKGDIVSVPFNIACGRCVMCKTQKTHVCLNVNPDRPGSAYGYVDMGGWVGGQSEYVMVPYADFQLLVFPDKEQALEKILDLTMLSDIFPTGFHGAYTAGVQTGSTVYIAGAGPVGLAAAHSAQLLGASTVIVGDLNEDRLAQARSFGCETVNVQKHDRLGEQIEQILGEPTVDAAVDCVGFEASGHGNQGEAPAAVLNSIMDVTQVGGSLGIPGLYVTEDPGAKDADAKTGSLKIRFGLGWAKAHTFVTGQTPAMTYNRNLMKAILSGRAQIAKAVNATVISLDDAPKGYSDFDKGAAKKFVIDPHGTLK
notes: full-length, C-terminal His tag (pNIC-CH) kept, E. coli T7 Express, HisTrap purified, 44 kDa; zinc-type, metal as purified
With B1 the Km was 190 ± 50 µM and the kcat was 0.52 s⁻¹.
